The record followed here is US5801039.

Residue numbers refer to the chain shown, from its start. Names may count otherwise.

The target in test [1] is casein (prepared according to Hammarsten; Merck, Darmstadt, #2242).
In test [2] the target is T1, succinyl-L-alanyl-L-alanyl-L-prolyl-L-phenylalanyl-p-nitroanilide.
T1 sequence (peptide, N-terminal succinyl; C-terminal p-nitroanilide): AAPF

B1: Bacillus lentus DSM 5483 alkaline protease (BLAP), wild type enzyme (enzyme)
chain: AQSVPWGISRVQAPAAHNRGLTGSGVKVAVLDTGISTHPDLNIRGGASFVPGEPSTQDGNGHGTHVAGTIAALNNSIGVLGVAPSAELYAVKVLGADGRGAISSIAQGLEWAGNNGMHVANLSLGSPSPSATLEQAVNSATSRGVLVVAASGNSGASSISYPARYANAMAVGATDQNNNRASFSQYGAGLDIVAPGVNVQSTYPGSTYASLNGTSMATPHVAGAAALVKQKNPSWSNVQIRNHLKNTATSLGSTNLYGSGLVNAEAATR
Take B1: in test [1], the Specific Activity (HPE · mg^-1) is 4000 HPE · mg^-1. For the same molecule, the kcat · Km^-1 in test [2] worked out at 297000 M⁻¹ s⁻¹.

B2: BLAP variant M131 (S3T + V4I + A188P + V193M + V199I) (enzyme)
chain: B1 chain with S3T, V4I, A188P, V193M, V199I
In test [1], B2 gave a Specific Activity (HPE · mg^-1) of 3670 HPE · mg^-1. Moreover, the kcat · Km^-1 in test [2] is 156000 M⁻¹ s⁻¹.

B3: BLAP mutant F55 (S3T + V4I + S154E + A188P + V193M + V199I + L211D) (enzyme)
chain: B1 chain with S3T, V4I, S154E, A188P, V193M, V199I, L211D
In test [1], B3 registered a Specific Activity (HPE · mg^-1) of 3200 HPE · mg^-1. Also, the kcat · Km^-1 in test [2] stood at 2600 M⁻¹ s⁻¹.

B4: BLAP mutant F49 (S3T + V4I + A188P + V193M + V199I + L211D) (enzyme)
chain: B1 chain with S3T, V4I, A188P, V193M, V199I, L211D
Molecule B4 showed a Specific Activity (HPE · mg^-1) in test [1] of 4610 HPE · mg^-1. Also, the kcat · Km^-1 in test [2] was determined as 11000 M⁻¹ s⁻¹.

B5: BLAP mutant F54 (S3T + V4I + R99G + A188P + V193M + V199I + L211D) (enzyme)
chain: B1 chain with S3T, V4I, R99G, A188P, V193M, V199I, L211D
In test [1], B5 displayed a Specific Activity (HPE · mg^-1) of 2510 HPE · mg^-1. For the same molecule, the kcat · Km^-1 in test [2] came to 1300 M⁻¹ s⁻¹.

B6: BLAP mutant F44 (S3T + V4I + R99A + A188P + V193M + V199I) (enzyme)
chain: B1 chain with S3T, V4I, R99A, A188P, V193M, V199I
On to B6, for which the Specific Activity (HPE · mg^-1) in test [1] was found to be 3750 HPE · mg^-1. In test [2], the kcat · Km^-1 worked out at 103000 M⁻¹ s⁻¹.

B7: BLAP mutant F46 (S3T + V4I + S154E + A188P + V193M + V199I) (enzyme)
chain: B1 chain with S3T, V4I, S154E, A188P, V193M, V199I
Consider B7, for which the Specific Activity (HPE · mg^-1) in test [1] amounted to 3180 HPE · mg^-1. The kcat · Km^-1 in test [2] turned out to be 179000 M⁻¹ s⁻¹.

B8: BLAP mutant F43 (S3T + V4I + R99G + A188P + V193M + V199I) (enzyme)
chain: B1 chain with S3T, V4I, R99G, A188P, V193M, V199I
B8 came in with a Specific Activity (HPE · mg^-1) in test [1] of 3780 HPE · mg^-1. The kcat · Km^-1 in test [2] is 99000 M⁻¹ s⁻¹.

B9: BLAP mutant F47 (S3T + V4I + S154D + A188P + V193M + V199I) (enzyme)
chain: B1 chain with S3T, V4I, S154D, A188P, V193M, V199I
Take B9: the Specific Activity (HPE · mg^-1) in test [1] is 3610 HPE · mg^-1. The kcat · Km^-1 in test [2] came to 124000 M⁻¹ s⁻¹.

B10: BLAP mutant F11 (S3T + R99S + A188P + V193M + V199I) (enzyme)
chain: B1 chain with S3T, R99S, A188P, V193M, V199I
B10 had a Specific Activity (HPE · mg^-1) in test [1] of 3760 HPE · mg^-1. Besides, the kcat · Km^-1 in test [2] turned out to be 92000 M⁻¹ s⁻¹.

B11: BLAP mutant F45 (S3T + V4I + R99S + A188P + V193M + V199I) (enzyme)
chain: B1 chain with S3T, V4I, R99S, A188P, V193M, V199I
In test [1], B11 registered a Specific Activity (HPE · mg^-1) of 3710 HPE · mg^-1. Further, the kcat · Km^-1 in test [2] turned out to be 68000 M⁻¹ s⁻¹.
